Assay results reported in publication PMC11272045.

Molecular target: recombinant his-tag subtilisin-like protease-1 (SspA-1) (Streptococcus suis serotype 2 strain 05ZYH33)
Test: MST

Substance: recombinant glutathione S-transferase (GST)-tagged human TLR2 (from UniProt O60603 21-784) (receptor)
- Kd: 24.3 nM
